Source: patent publication US20150232852

What was measured:
[1] = molecular target: glucagon, L-form, biotinylated (glucagon1-29-AEEAc-AEEAc-biotin) (Homo sapiens) (UniProt P01275); assay: pulldown; details: L-DNA; 37 C, 1 mM Mg, 1 mM Ca, pH 7.4; direct pull-down, spiegelmer
[2] = molecular target: D-glucagon (all D-amino acids), biotinylated (Homo sapiens) (UniProt P01275); assay: pulldown; details: D-DNA; 37 C, 1 mM Mg, 1 mM Ca, pH 7.4; direct pull-down
Sequence of D-glucagon (all D-amino acids), biotinylated (Homo sapiens) (P01275 53-81): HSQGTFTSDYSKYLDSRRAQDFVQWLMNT

Row | Sequence | Kd [1] [µM] | Kd [2] [µM]
1 | GCAGTGGGGAAATGGGAGGGCTAGGTGGAAGGAATCTGAGCTACTGC [257-E1-001 (spiegelmer)] | 0.179 | 
2 | CGACTCGAGAGGAAAGGTTGGTAAAGGTTCGGTTGGATTCACTCGAGTCG [259-H6-001 (aptamer)] |  | 0.033
3 | GCAGTGGGGAAATGGGAGGGCTAGGTGGAAGGAATCTGAGCTACTGC [257-E1-001 (aptamer)] |  | 0.137
